B1: W3452-1.164.16-z11-IgG1K (antibody, V domains shown)
VH: QVQLQESGPGLVKPSETLSLTCTVSGFSLTNYHVYWIRQPPGKGLEWIGVMWNHGDTSYNSPLKSRVTISVDTSKSQFSLKLSSVTAADTAVYYCARGGYVPDYWGQGTMVTVSS
VL: DIVMTQSPLSLPVTPGEPASISCRSSQSLVHSNAKTYLHWYLQKPGQSPQLLIYRVSNRFSGVPDRFSGSGSGTDFTLKISRVEAEDVGVYYCLQTTHFPYTFGQGTKLEIK
B2: W3452-2.683.2-z27-IgG1L (antibody, V domains shown)
VH: EVQLVESGGGLVQPGRSLRLSCAASGFTFSTYGMAWVRQAPGKGLEWVSSISTSGGSTYYRDSVQGRFTISRDNAKSSLYLQMNSLRAEDTATYYCTTKGGRTYRLAYWGQGTLVTVSS
VL: SYELMQPPSVSVSPGQTARITCSGIELSNKYAHWYQQKPGQAPVEVMYKDSERPSGIPERFSGSRSGTTVTLTISGVQAEDEADYYCLSTNSDDDLPVFGGGTKLTVL
B3: W3452-2.683.2-z27-IgG4PE,L (antibody, V domains shown)
VH: EVQLVESGGGLVQPGRSLRLSCAASGFTFSTYGMAWVRQAPGKGLEWVSSISTSGGSTYYRDSVQGRFTISRDNAKSSLYLQMNSLRAEDTATYYCTTKGGRTYRLAYWGQGTLVTVSS
VL: SYELMQPPSVSVSPGQTARITCSGIELSNKYAHWYQQKPGQAPVEVMYKDSERPSGIPERFSGSRSGTTVTLTISGVQAEDEADYYCLSTNSDDDLPVFGGGTKLTVL

target: 人CD47 (human CD47) (human) (UniProt Q08722); assay: FACS competition on CHOK1 cells stably transfected with human CD47; competitor 1 μg/ml human SIRPα-His
Sequence of UniProt Q08722 (Q08722 19-323): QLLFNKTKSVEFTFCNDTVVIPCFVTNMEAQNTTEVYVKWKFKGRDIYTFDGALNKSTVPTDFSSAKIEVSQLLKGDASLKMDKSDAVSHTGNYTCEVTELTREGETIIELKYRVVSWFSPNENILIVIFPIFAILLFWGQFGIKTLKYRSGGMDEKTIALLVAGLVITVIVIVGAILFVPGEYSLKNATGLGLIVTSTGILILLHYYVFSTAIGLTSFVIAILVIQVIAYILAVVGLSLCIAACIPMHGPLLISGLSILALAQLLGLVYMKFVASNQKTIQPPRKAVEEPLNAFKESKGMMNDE

阻断率, > 90%:
B1
B2
B3

— patent CN110305214A
